Measurements from the nanobody polyreactivity screen of Harvey et al. (2022).

Assay: yeast display, Sf9 membrane polyspecificity reagent, FACS + sequencing; frameworks hold sequencing errors
Summary of the method: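 Polyreactivity labels are assigned by the sorting gate from which each nanobody was recovered. The gates were low and high (top ~1%), set on anti-HA fluorescence for expression and streptavidin fluorescence for reagent binding. Before sorting, galactose-induced (36–48 hours) yeast display cells were stained for 1 hour at 4 °C with 10% biotinylated, detergent-solubilized Sf9 membrane reagent.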

| Sequence | polyreactivity (PSR sort gate) |
| --- | --- |
| QVQLVESGGGLVQAGRSLRLSCAASGSTFRQNAMGWYRQAPGKERELVAGITFSSGSTYYADSVKGRFTISRDIAKNTLYLQMNSLKPEDTAVYYCAVRNASKNRKYYYWGQGTQVTVSS | high polyreactivity |
| QVQLVESGGGLVQAGRSLRLSCAASGSTFWPNAMGWYRPAPGKERELVAAITSGGRTKYADSVKGRFTISRDNAKNTVYLQMNSLKPEDTAFYYCAKRKGDRGAWIHAYGWEDVDYWGQGTQVTVSS | low polyreactivity |
| QVQLVESGGGLVQAGRSLRLSCAASGSTIVGYAIGWYRQAPGKDRELVAAISGSGTSTYYADSVKGRFTISRDNAKNTVYLHMISMKPEHTAVYYCIADPIFVYSSYNFWGQGTQVTVSS | low polyreactivity |
| QVQLVESGGGLVQAGRSLRLSCAASGTTFVIYDMGWSRQAPGKERDLVAGNSYSGGSTYYADSVKGRFTISRDNAKNTVYLQMNSLKPEDTAVYYCNAGVLVLLYAYLPSDLEYWGQGTQVTVSS | low polyreactivity |
| QVQLVESGGGLVQAGRSLRLSCAASGYTFYFYAKGWSRQAPGKDRELVASMTWRGGSPYYADSVKGRFTISRDNAKNTVYLQMNSLKPEETADYYCAKHVYYIYDYWGQGTQVTVSS | low polyreactivity |
| QVQLVESGGGLVQAGRSLRLSCAPSGLTISSNAMGGYRQAPGKERELVAGISRRGGRTYYADSVKGRFTISRDTAKHTVYLQMNSLKPEDTAVYYCAADRVGNSYDYWGQGTQGTVSS | high polyreactivity |
| QVQLVESGGGLVQAGRSLRLSCSASGFSFSFYSMGWYRQAPGKERELVAAISQSGGSTYYADSVKGRFIISLDNAKHTVYLQKNSLKPEDTAVYYCNRGLRRHQSDDYWGQGTQVTVSS | high polyreactivity |
| QVQLVESGGGLVQAGRSLRLTCAASGRIFNPYAMGWYRQAPGKERELVAAISRGGRTYYADSVKGRFTISRDNAKNTVYLQMNSLKPEDTAVYYCNAGRGLREDDYWGQGTQVTVSS | low polyreactivity |
| QVQLVESGGGLVQAGRSNRLSCAASGSLFPDYTMGWYRQAPGQERELVAGSTWNRGGTYYADSVKGRFTISRDNAKNTVYLQMNILKPEDTAVYYCAAEWSGSRSSGAWGPYNYWGQGSQVTVSS | low polyreactivity |
| QVQLVESGGGLVQAGRTLRLSCAASGFIFFDNAMGWYRQAPGKERELVAVISSSGTSTYYADAVKGRFTISRDNAKNTVYLQMNSLKPDDTAVYYCNATARTGVYLESDYWGQGTQVTVSS | low polyreactivity |
| QVQLVESGGGLVQAGRTLRLSCAASGSNFSVYVMGWYRQAPGKEWELVAAISWSDSDTYYADSVKGRFTISRDNATNNVYLLMNSLNPEDTAVYYCAAETFDYHDYIANGSGEYDYWGQGNQVTVSS | high polyreactivity |
| QVQLVESGGGLVQAGVSLLLSCAASGRTFYANAMGWYSQAPGKEREFVAAISYGTGGTYYADSVKGRFTISRDNAKNTVYLQMNTLKPEDTAVYYCAASLYWGIYGWMGYWGQGTQVTVSS | high polyreactivity |
| QVQLVESGGGLVQAGVSLRISCAPSGRTFIIYAMGRYRQAPGKERELVADISSGGSTYYADSVKGRFKISRDNAKNTVYLHMNSLKPEDTAVYYCAAQSWYYPIGYDYWGLGTQVTVSS | low polyreactivity |
| QVQLVESGGGLVQAGVSLRLICAATGSIFWRKTKGWYRQAPGKEREFVAAISTSGSTYYADSVKGRFTISRDNAKNTVYLKMNSLKPEDTAVYYCAADASRGYQREGGYWGQGTQVTVSS | high polyreactivity |
| QVQLVESGGGLVQAGVSLRLSCAASGFISDWYAMGWYRQAPGNERELVATLDWIGGSTYADSVKGRFTISRDNAKNTVYFQMNSLKPEDTAVYYCAADSFFIAWYGAHYAYDDWGQGTQVTVSS | low polyreactivity |
| QVQLVESGGGLVQAGVSLRLSCAASGGTFPKYTMGWYRQAPGKERELVAAITSRGTRTYYADSVKARFTISRDNAKNTVYLQMNSLKTEDTAVYYCAAYFDRHRYDYWGQGTQVTVSS | high polyreactivity |

| Sequence | polyreactivity (PSR sort gate) |
| --- | --- |
| QVQLVESGGGLVQAGVSLRLSCAASGITFVNNDMGWYRQAPGKERELVAAISSSGGSTYYADSVKGRFTISRDNAKNTDYLQMNSLKPEDTAVYYCAAPWYNAGRFRYYYWGQGTQVTVSS | high polyreactivity |
| QVQLVESGGGLVQAGVSLRLSCAASGITIKGNAKGWYRQAPGKERELVAAISRRGGNTYYADSVKGRFTISRDNAKNTVYLQMNSLKPEDTAVYYCAAEYNQSFDYWGQGTQVTVSS | low polyreactivity |
| QVQLVESGGGLVQAGVSLRLSCAASGNAMGWYRQAPGKERELVAAITYGGTTTYYADSVKGRFTISRDNAKNTVYLQMNSLKPEDTAVYYCAADFVFVATPLRYDYWGQGTQVTVSS | low polyreactivity |
| QVQLVESGGGLVQAGVSLRLSCAASGNIFRAYAMGWYRQAPGKERELVAAIDTTGGRTYYADSVKGRFTISRDNAKITVYLLMKSLKPEDTAVYYCAVRAPAYPYYRGFDYWGQGSQVTVSS | low polyreactivity |
| QVQLVESGGGLVQAGVSLRLSCAASGRIFPGYAMGSDRQAPAKERELVAGITWRTARTYYADSVKGRFTISRDNAKNTVYLQMNSLKPEDTAVYYCAAVSDYEGNYWGQGTQVTVSS | high polyreactivity |
| QVQLVESGGGLVQAGVSLRLSCAASGRTFGYYAMGWYRPAPGKETELVAASTLSGGSTYYADSVKGRFTISRDNAKNTVYLQMNSLKPEYTAVYYCAAKWWHFYPYDYWGQGTQVTVSS | high polyreactivity |
| QVQLVESGGGLVQAGVSLRLSCAASGRTFRFYAMGWYRQAPGKERELVAAITGSGGSTYYADSVKGRFTISRDNAKNTVYLQMNCLKPEDTAVYYCAASRWREYHASKMDYWGQGTQVTVSS | low polyreactivity |
| QVQLVESGGGLVQAGVSLRLSCAASGRTFRGYAMGWYRQAPGKERELVAAISSGGSTYYADSVKWRFTISRDNSKNTVYLQMNSLKPEDTAVYYCARAVGNYRTLEFDYWGQGTHVTVSS | low polyreactivity |
| QVQLVESGGGLVQAGVSLRLSCAASGSIFSYNAMGWYRQAPGKERELVAAISRCSGSTYYADSVKGRFTISRDIAKNTVYLQMNSLKPEDTAVYYCAGRPKTIPSYYLGYHVRFDYWGQGTQVTVSS | low polyreactivity |
| QVQLVESGGGLVQAGVSLRLSCAASGSTFVSNAMGWYRQAPGKERELVAAISWSGVRTYYADSVKGRITISRDNAKNTVYLQMNSLKPEDTAVYYCSKRIYGSRSSRFNYWGQGTQLTVSS | high polyreactivity |
| QVQLVESGGGLVQAGVSLRLSCAASGSTFYWYAMGWYRQAPGKERELVAAITYSSGRTYYADSEKGRFTISRDNAKNTVYLQMNSLKPEDTAVYYCGWSALNGYDYWGQGTQVTVSS | high polyreactivity |
| QVQLVESGGGLVQAGVSLRLSCAASGTIFYTYTMGWYRQAPRKERELVATIRSTGSTDYADSVKGRFTISRDNAMNTVYLQMNSLKREDTAVYYCNADRFGDYDYWGQGTQVTVSS | low polyreactivity |
| QVQLVESGGGLVQAGVSLRLSCAAYGFTFTGYAMGWYRQAPGKEMEFVAAITTGGGSTYYADSVKGRFTISRDNAKNTVYFQMNSLKPEDTAVYYCAKSRQYIGGFDYWGQGTQVTVSS | high polyreactivity |
| QVQLVESGGGLVQAGVSLRLSCASTGLTFRYYAMGWYRQAPGKERELVAAISSGTGTYYADSVKGRFTISRDNAKNTVYLQMNSLKPEDTAVYYCAAVFFRARVIRGYNYWGQGTQVTVSS | high polyreactivity |
| QVQLVESGGGLVQAGVSLRLSCVASGLTQPYAMGWYRQAPGKESELVAGISWRGASTYYADSVKGRFTISRDNAKNTVYLQMNSLKPEDTAVSYCAARSTIQRRGYYGYRVGRSEYGYWGQGTQVTVSS | low polyreactivity |
| QVQLVESGGGLVQARGILRLSCAASGSTFYTYTAMGWYRQAPGKERELVAAITWRGGSTYYADSVKGRFTIARDNAKNTVYLQMNSLKPQDSAVSSCAATLNRYGYDYWGQGTQVTVSS | high polyreactivity |
